These results are taken from patent US20250019454A1 (BIOCYTOGEN PHARMACEUTICALS BEIJING, published 2025).

The chains are these.
T1: mouse TNFR2 (on transfected CHO cells) (mouse, UniProt P25119 23-474)
T1 construct: also called mTNFR2
T1 sequence: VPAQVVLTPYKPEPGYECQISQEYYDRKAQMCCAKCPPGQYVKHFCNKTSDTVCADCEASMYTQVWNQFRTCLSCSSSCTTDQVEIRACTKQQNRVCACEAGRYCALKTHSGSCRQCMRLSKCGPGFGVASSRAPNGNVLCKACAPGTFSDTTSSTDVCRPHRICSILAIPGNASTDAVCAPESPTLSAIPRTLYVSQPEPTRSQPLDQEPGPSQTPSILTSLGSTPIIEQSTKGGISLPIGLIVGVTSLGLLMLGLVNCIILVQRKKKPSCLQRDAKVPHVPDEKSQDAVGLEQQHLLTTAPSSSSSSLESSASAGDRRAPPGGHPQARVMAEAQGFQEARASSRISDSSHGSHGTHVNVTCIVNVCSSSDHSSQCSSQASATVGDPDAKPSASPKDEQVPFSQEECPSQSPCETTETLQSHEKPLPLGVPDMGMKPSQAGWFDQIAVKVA

T2: dog (Canine) TNFR2 (on transfected CHO cells) (dog)
T2 construct: also called dTNFR2
T2 chain: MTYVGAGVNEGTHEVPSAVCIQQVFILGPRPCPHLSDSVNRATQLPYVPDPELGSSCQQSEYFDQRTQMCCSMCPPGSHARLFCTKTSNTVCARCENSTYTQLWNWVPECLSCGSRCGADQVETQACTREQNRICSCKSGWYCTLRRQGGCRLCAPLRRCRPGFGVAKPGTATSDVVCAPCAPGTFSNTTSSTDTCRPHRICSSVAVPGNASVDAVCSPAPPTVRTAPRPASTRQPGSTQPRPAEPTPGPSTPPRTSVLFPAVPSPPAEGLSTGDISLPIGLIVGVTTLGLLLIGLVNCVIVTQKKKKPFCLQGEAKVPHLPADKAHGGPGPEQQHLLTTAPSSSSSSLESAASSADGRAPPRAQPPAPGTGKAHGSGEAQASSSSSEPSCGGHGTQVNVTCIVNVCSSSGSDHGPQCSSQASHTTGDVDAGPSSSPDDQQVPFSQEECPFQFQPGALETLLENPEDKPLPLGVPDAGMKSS

T3: human TNFR2 (expressed on cells) (human, UniProt P20333 23-461)
T3 construct: also called hTNFR2; human TNF Receptor 2
T3 sequence: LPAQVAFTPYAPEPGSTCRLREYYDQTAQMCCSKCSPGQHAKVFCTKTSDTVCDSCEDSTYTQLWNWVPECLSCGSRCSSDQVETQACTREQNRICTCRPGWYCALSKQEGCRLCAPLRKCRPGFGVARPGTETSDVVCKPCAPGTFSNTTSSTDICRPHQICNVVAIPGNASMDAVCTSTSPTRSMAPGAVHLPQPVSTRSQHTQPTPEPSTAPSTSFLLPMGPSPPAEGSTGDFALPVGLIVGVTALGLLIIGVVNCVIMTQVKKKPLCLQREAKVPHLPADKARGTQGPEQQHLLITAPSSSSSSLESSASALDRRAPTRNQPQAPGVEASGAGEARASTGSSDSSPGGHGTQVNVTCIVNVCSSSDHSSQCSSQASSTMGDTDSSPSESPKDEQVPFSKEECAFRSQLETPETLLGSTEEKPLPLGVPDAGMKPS

T4: ΔCRD3-TNFR2 protein (with CRD3 deletion), on CHO-S cells (human, UniProt P20333 23-461)
T4 construct: also called CHO-SΔCRD3-TNFR2; TNFR2 lacking CRD3
T4 sequence: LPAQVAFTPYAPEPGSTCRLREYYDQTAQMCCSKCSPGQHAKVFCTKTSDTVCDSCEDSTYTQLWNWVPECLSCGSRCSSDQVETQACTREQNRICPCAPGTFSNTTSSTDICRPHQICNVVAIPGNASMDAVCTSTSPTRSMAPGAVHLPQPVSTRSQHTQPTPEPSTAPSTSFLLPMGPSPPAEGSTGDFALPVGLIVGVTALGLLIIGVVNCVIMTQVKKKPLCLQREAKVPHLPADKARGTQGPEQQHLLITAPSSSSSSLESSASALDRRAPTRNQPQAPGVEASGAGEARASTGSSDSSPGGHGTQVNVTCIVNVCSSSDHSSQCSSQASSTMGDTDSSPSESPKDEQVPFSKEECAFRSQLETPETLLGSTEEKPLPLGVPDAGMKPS

B1: BC-1B6-IgG1 (antibody, V domains shown)
VH: QVQLVESGGGVVQPGRSLRLSCAASGFTFSNFGMHWVRQAPGKGLEWVAVIWYEGSDKYYADSVKGRFTISRDNSKNTLYLQMNSLRAEDTAVYYCARDSSWGFLLYGMDVWGQGTTVTVSS
VL: DVVMTQSPLSLPVTLGQPASISCRSSRSLEYSDGNTYLNWFQQRPGQSPRRLIYKVSNRDSGVPDRFSGSGSGTAFTLKISGVEAEDVGVYYCMQGTHWPPTFGGGTKVEIK
notes: Human VH/VL joined to the human IgG1 subtype
B2: BC-1C3-IgG1 (antibody, V domains shown)
VH: QVQLVESGGGVVHPGKSLRLSCAASGFTFNIYGMHWVRQAPGKGLEWVALISYDGNDKYFADSVKGRFTISRDNSKNTLYLQMNSLRAEDTAVYYCAKAVDTAVVTFFDYWGQGTLVTVSS
VL: EIVMTQSPVTLSVSPGERATLSCRASQSVSSNLAWYQQKPGQAPRLLIYSASTRATGIPARFSGSGSGTEFTLTISSLQSEDLAVYYCQQYSNWPFTFGPGTKVDIK
notes: as for B1
B3: BC-1F10-IgG1 (antibody, V domains shown)
VH: QVQLQQWGAGLLKPSETLSLICAVYDGSFSGDYWSWIRQPPGKGLEWIGEINHSGSTNYNPSLKSRVTISVDTSKNQFSLKLSSVTAADTAVYYCARGHWNYDYYYGMDVWGQGTTVTVSS
VL: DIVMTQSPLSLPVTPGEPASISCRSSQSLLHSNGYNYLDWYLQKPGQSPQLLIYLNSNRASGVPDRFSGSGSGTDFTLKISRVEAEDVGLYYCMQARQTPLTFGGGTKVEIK
notes: as for B1
B4: BC-1A8-IgG1 (antibody, V domains shown)
VH: QVQLQQSGPGLVKPSQTLSLTCAISGDSVSSNSAAWNWIRQSPSRGLEWLGRTYYRSKWYNDYALSVKSRITINPETSKNQFSLQLNSVTPEDTAVYYCAREDGVGGTKDYFDYWGQGTLVTVSS
VL: DIQMTQSPSSLSASVGDRVTITCQASQDIDNYLNWYQQKPGKAPKLLIYDVSNLEIGVPSRFSGSGSGTDFTFTISSLQPEDIATYYCQQYDNLPLTFGQGTRLEIK
notes: Fully human VH/VL joined to the human IgG1 subtype, kappa light chain (RenMab mice)
B5: BC-1F4-IgG1 (antibody, V domains shown)
VH: B4 VH with N32D, A34S, A64T, L65V, E76D
VL: B4 VL with D30S, V51A, I56T, S76N, I83F, Y87F, L96I
notes: as for B1

Numbering of substitutions follows the chain as printed.

In the first assay the target is T1, mouse TNFR2 (on transfected CHO cells). Description: flow cytometry on transfected CHO cells. Here is the method:
(§1) 30 μl CHO cells (1×10⁵ cells) were added to each well. 30 μl purified anti-TNFR2 antibodies (10 μg/mL) (as listed in Table 4) were added to each well and were incubated at 4° C. for 30 minutes.
(§2) After two washes with PBS (1600 rmp, 6 min), 50 μl of Alexa Fluor labeled anti-human IgG Fc antibody […] was added into each well 1:500 dilution, incubated at 4° C. for 15 minutes, followed by a PBS wash (1200 rmp, 5 min). The signals for AF647 were detected by flow cytometry.
(A flow cytometer gives signals particle by particle.)
As to B1, the binding result is recorded as “no binding (tested: 10 µg/mL)”.
For B2, the binding result was “no binding (tested: 10 µg/mL)”.
Regarding B3, the binding result is given as “no binding (tested: 10 µg/mL)”.
The same measure, in the same setting: then B4, with “no binding (tested: 10 µg/mL)”.
B5: the binding result is “no binding (tested: 10 µg/mL)”.

The target of a further assay is T2, dog (Canine) TNFR2 (on transfected CHO …). The assay can be described thus: flow cytometry on transfected CHO cells. On the procedure: as §1, §2
Consider B1, for which the binding result is “no binding (tested: 10 µg/mL)”.
As for B2, the binding result is “no binding (tested: 10 µg/mL)”.
For B3, the binding result was “no binding (tested: 10 µg/mL)”.
For the molecule B4, the binding result was “no binding (tested: 10 µg/mL)”.
Turning to B5, the binding result is recorded as “no binding (tested: 10 µg/mL)”.

Another assay addresses T3, human TNFR2 (expressed on cells). The assay can be described thus: flow cytometry competition, CHO cells with human TNFR2, antibody 0.1565 µg/mL, Biotin-hTNFα 0.5 µg/mL. On the procedure:
(§3) 30 μl of Biotin-hTNFα (Acro Biosystems, Cat #: TNA-H82E1) was added to each well (with a final concentration of 0.5 μg/mL in each well). The cells with Biotin-hTNFα and the antibodies were incubated at 4° C. for 30 minutes.
(§4) The signals for AF647 and PE were determined by flow cytometry (Thermo Attune NX).
With B1, the “percentage of tested cells that had Streptavidin signals” value (from here on “percentage”) was 82.7%.
Still for that read-out and setting: then B2, with 74.3%.
Regarding B3, the “percentage” value stood at 55.2%.
Turning to B4, the “percentage” value was 67.4%.
For B5, the “percentage” value is 76.2%.

The next assay has the same target. Description: flow cytometry competition, CHO cells with human TNFR2, antibody 0.039 µg/mL, Biotin-hTNFα 0.5 µg/mL. On the procedure: as §3, §4
Consider B1, for which the “percentage” value was 78.9%.
Turning to B2, the “percentage” value was found to be 77%.
In the case of B3, the “percentage” value was 59%.
Consider B4, for which the “percentage” value is 62.8%.
For the molecule B5, the “percentage” value stood at 84.6%.

For another assay, the target named is T4, ΔCRD3-TNFR2 protein (with CRD3 …). Description: FACS on CHO-S cells with ΔCRD3-TNFR2. The text has this:
TNFR2 has four cysteine rich domains (CRD). In another experiment, FACS was used to detect the binding of anti-hTNFR2 antibodies to TNFR2 proteins with different structural domains. Secondary antibody (Alexa Fluor® 647 AffiniPure F(ab′) 2 Fragment Goat Anti-Human IgG, Fcγ fragment specific, Jackson ImmunoResearch Laboratories, Inc., Cat #: 151524) was used. The fluorescence-labeled secondary antibody can attach to the Fc region of the anti-hTNFR2 antibodies so that the anti-hTNFR2 antibodies that are bound to the ΔCRD cells can be detected by FACS. Specifically, ΔCRD1-TNFR2 protein (with CRD1 deleteion), ΔCRD2-TNFR2 protein (with CRD2 deleteion), ΔCRD3-TNFR2 protein (with CRD3 deleteion) or ΔCRD4-TNFR2 protein (with CRD4 deleteion) were expressed in CHO-S cells respectively, and then the binding between the cells and different anti-hTNFR2 antibodies was detected.
For the molecule B2, the binding result is recorded as “no binding”.
Still for that read-out and setting: as for B4, the entry is “no binding”; as for B5, “no binding”.
